Consider 2 molecules from article PMC5131957, “p53 Specifically Binds Triplex DNA In Vitro and in Cells”.

One series addresses p53 full length (human, UniProt P04637 1-393). Kind of series: ELISA; DO1 antibody; 2 mM Mg2+; EMSA: 5 mM Tris-HCl pH 8, 1 mM MgCl2, 0.01% Triton X-100, 50 mM KCl, on ice or 25 C, 30 min, pBSK/SmaI competitor 5-50 ng; ELISA: 1x PBS, 2 mM MgCl2, temperature not stated. To be noted: protein: recombinant, chain copies: 4.
Series [1] has as its target p53CT (C-terminal segment: tetramerization domain + CTDBD) (human, UniProt P04637 320-393). As to the kind of experiment: ELISA; 2 mM Mg2+; EMSA: 5 mM Tris-HCl pH 8, 1 mM MgCl2, 0.01% Triton X-100, 50 mM KCl, on ice or 25 C, 30 min, pBSK/SmaI competitor 5-50 ng; ELISA: 1x PBS, 2 mM MgCl2, temperature not stated. To be noted: protein: recombinant; tags: GST (with or without); chain copies: 4; label: 3' biotin on (dA)50; intermolecular triplex, 2 x (dT)50 + 1 x (dA)50. (In an ELISA, binding on a coated surface is turned into a signal by an enzyme label.)

The target of another series is p53T (last 30 aa, CTDBD) (human, UniProt P04637 363-393). The series is described as above. To be noted: protein: recombinant; tags: GST (with or without); label: 3' biotin on (dA)50; intermolecular triplex, 2 x (dT)50 + 1 x (dA)50.
Sequence of p53T (last 30 aa, CTDBD) (P04637 363-393): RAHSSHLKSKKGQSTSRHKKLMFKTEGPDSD

Sequence of p53 full length (P04637 whole entry, the tested form may be a part): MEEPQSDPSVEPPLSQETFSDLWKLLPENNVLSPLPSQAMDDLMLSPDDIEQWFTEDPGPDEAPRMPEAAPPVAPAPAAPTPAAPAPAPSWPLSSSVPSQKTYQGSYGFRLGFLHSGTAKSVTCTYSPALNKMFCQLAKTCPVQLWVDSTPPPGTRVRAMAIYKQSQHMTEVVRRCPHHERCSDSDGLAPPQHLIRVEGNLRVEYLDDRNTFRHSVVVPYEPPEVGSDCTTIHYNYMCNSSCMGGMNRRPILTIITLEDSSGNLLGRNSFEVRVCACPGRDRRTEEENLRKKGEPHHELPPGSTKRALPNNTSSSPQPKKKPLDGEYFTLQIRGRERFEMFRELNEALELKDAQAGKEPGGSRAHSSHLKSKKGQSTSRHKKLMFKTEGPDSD
Sequence of p53CT (C-terminal segment: tetramerization domain + CTDBD) (P04637 320-393): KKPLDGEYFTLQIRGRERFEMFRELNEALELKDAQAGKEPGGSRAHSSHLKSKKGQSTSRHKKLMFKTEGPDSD

B1: CON, biotinylated (dsDNA)
DNA 1: GACGGTATCGATAAGAGACATGCCTAGACATGCCTCTTGATATCGAATTC
DNA 2: GAATTCGATATCAAGAGGCATGTCTAGGCATGTCTCTTATCGATACCGTC
As usually defined, the Kd is the constant that tells how readily two partners part at equilibrium. As to B1, the Kd with p53 full length (label: 3' biotin on strand 1, blunt) was 0.58 ± 0.05 nM.

B2: T.A.T triplex, biotinylated (structured_DNA)
DNA 1: TTTTTTTTTTTTTTTTTTTTTTTTTTTTTTTTTTTTTTTTTTTTTTTTTT
DNA 2: AAAAAAAAAAAAAAAAAAAAAAAAAAAAAAAAAAAAAAAAAAAAAAAAAA
DNA 3: B2 DNA 1
Consider B2, for which the Kd in series [1] came to 1.88 ± 0.3 nM; with p53T (last 30 aa, CTDBD), 10.4 ± 0.84 nM; with p53 full length (label: 3' biotin on (dA)50, intermolecular triplex, 2 x (dT)50 + 1 x (dA)50), 0.75 ± 0.07 nM.
